Measurements as given in paper PMC10256215, “IFITM1 enhances nonenveloped viral RNA replication by facilitating cholesterol transport to the Golgi” (PLOS Pathogens, 2023).

Columns and labels:
Assay in all cases: two-hybrid; mammalian two-hybrid (Checkmate, Promega) in Vero cells; pACT and pBIND fusions in both orientations with the pG5luc reporter; firefly/Renilla luciferase at 48 h as fold of the control with empty pACT or pBIND
Settings in all cases: partners not purified
[1] = target: T1, OSBP (mammalian two-hybrid fusion) (UniProt P22059 1-807)
T1 construct: two-hybrid construct not described; Two-hybrid construct not described in the methods; source: Vero cells, transfected, mammalian two-hybrid fusion
T1 sequence (looked up): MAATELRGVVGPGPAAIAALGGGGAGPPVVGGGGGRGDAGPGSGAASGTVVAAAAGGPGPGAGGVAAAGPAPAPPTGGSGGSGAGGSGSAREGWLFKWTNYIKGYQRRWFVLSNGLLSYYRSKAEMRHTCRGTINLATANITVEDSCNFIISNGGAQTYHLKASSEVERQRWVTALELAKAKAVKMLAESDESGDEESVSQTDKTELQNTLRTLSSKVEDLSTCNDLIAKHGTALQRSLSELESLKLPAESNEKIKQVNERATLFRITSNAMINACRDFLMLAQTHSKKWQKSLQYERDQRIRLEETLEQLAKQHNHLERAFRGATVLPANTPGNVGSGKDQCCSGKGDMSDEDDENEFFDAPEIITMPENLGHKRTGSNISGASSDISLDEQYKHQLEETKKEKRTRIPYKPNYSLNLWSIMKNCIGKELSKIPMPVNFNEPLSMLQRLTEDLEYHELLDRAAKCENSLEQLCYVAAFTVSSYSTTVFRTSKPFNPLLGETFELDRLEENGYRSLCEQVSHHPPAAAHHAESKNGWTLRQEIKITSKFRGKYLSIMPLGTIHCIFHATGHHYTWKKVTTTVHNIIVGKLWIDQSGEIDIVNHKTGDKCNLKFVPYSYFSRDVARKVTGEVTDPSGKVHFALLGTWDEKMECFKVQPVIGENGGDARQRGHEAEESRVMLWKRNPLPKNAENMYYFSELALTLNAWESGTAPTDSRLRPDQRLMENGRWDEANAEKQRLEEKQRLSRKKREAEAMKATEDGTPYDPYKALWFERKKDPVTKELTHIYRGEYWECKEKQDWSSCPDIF

[2] = target: T2, PI4KB (mammalian two-hybrid fusion) (UniProt Q9UBF8 1-816)
T2 construct: PI4KB, Golgi protein; two-hybrid construct not described; Two-hybrid construct not described in the methods; also called phosphatidylinositol 4-kinase IIIβ; source: Vero cells, transfected, mammalian two-hybrid fusion
T2 sequence (Q9UBF8 whole entry, the tested form may be a part): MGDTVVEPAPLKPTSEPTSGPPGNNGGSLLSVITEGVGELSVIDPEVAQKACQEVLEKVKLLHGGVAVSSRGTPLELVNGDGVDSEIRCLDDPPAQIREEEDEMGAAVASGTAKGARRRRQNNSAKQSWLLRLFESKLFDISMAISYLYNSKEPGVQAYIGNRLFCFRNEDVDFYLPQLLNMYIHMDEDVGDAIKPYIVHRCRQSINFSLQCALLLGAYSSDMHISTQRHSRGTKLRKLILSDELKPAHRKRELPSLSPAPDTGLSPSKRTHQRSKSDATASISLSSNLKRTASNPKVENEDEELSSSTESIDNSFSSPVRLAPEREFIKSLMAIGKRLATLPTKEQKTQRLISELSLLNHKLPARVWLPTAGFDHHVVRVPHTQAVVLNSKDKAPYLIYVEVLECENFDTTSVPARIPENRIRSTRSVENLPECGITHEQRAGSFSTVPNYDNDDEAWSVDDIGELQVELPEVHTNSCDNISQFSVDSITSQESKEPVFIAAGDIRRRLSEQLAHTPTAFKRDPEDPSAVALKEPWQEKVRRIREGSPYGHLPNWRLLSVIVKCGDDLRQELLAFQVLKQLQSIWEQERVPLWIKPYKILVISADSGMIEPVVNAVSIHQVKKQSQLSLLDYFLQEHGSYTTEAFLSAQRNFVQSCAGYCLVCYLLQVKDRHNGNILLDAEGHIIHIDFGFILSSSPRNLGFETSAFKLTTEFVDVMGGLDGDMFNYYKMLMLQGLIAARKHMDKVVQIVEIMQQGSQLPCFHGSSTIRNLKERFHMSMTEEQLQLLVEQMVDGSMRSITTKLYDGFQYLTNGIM

[3] = target: T3, ACBD3 (mammalian two-hybrid fusion) (UniProt Q9H3P7 1-528)
T3 construct: ACBD3, Golgi protein; two-hybrid construct not described; Two-hybrid construct not described in the methods; source: Vero cells, transfected, mammalian two-hybrid fusion
T3 sequence (looked up): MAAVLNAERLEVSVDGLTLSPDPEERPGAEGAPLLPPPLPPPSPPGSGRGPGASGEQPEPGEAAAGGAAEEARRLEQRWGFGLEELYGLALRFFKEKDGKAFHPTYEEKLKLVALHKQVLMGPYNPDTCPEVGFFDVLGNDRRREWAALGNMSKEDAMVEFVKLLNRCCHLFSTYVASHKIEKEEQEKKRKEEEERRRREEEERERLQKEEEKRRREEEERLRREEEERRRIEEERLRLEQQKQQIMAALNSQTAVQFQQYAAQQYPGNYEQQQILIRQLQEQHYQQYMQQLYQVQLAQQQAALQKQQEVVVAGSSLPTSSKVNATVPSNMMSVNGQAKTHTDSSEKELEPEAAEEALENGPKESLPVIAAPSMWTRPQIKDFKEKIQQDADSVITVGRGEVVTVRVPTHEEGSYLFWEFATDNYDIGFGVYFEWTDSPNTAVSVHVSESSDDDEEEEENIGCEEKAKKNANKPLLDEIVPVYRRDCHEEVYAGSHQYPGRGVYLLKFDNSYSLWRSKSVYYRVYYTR

B1: IFITM1 (mammalian two-hybrid fusion) (natural protein, human, UniProt P13164 1-125, looked up)
chain: MHKEEHEVAVLGPPPSTILPRSTVINIHSETSVPDHVVWSLFNTLFLNWCCLGFIAFAYSVKSRDRKMVGDVTGAQAYASTAKCLNIWALILGILMTIGFILLLVFGSVTVYHIMLQIIQEKRGY
notes: IFITM1, human; coding region amplified by PCR from an OriGene cDNA clone; one fusion partner at a time; also called interferon-induced transmembrane protein 1; pACT-IFITM1; source: Vero cells, transfected, mammalian two-hybrid fusion
- fold increase in luciferase activity [1]: 7.8 fold
- fold increase in luciferase activity [2]: 8.2 fold
- fold increase in luciferase activity [3]: 84.2 fold
